Laboratory results as given in paper PMC12813973, “Consequences of Peptide Macrocyclization Revealed by Virus-Inspired β‑Hairpin Mimetics” (ACS Chemical Biology, 2025).
Where two headings read alike, the source gives them in different places.

How the values were obtained:
[1] = biological target: T1, 018 minimal fragment (peptide 1) 11-30 (Vaccinia virus), P17356; assay: ITC
[2] = biological target: T1, 018 minimal fragment (peptide 1) 11-30 …
[3] = biological target: T1, 018 minimal fragment (peptide 1) 11-30 …; assay: competition

T1 sequence (P17356 11-30): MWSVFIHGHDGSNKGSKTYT

B1: STAT1, P42224 (protein)
chain: SQWYELQQLDSKFLEQVHQLYDDSFPMEIRQYLAQWLEKQDWEHAANDVSFATIRFHDLLSQLDDQYSRFSLENNFLLQHNIRKSKRNLQDNFQEDPIQMSMIIYSCLKEERKILENAQRFNQAQSGNIQSTVMLDKQKELDSKVRNVKDKVMCIEHEIKSLEDLQDEYDFKCKTLQNREHETNGVAKSDQKQEQLLLKKMYLMLDNKRKEVVHKIIELLNVTELTQNALINDELVEWKRRQQSACIGGPPNACLDQLQNWFTIVAESLQQVRQQLKKLEELEQKYTYEHDPITKNKQVLWDRTFSLFQQLIQSSFVVERQPCMPTHPQRPLVLKTGVQFTVKLRLLVKLQELNYNLKVKVLFDKDVNERNTVKGFRKFNILGTHTKVMNMEESTNGSLAAEFRHLQLKEQKNAGTRTNEGPLIVTEELHSLSFETQLCQPGLVIDLETTSLPVVVISNVSQLPSGWASILWYNMLVAEPRNLSFFLTPPCARWAQLSEVLSWQFSSVTKRGLNVDQLNMLGEKLLGPNASPDGLIPWTRFCKENINDKNFPFWLWIESILELIKKHLLPLWNDGCIMGFISKERERALLKDQQPGTFLLRFSESSREGAITFTWVERSQNGGEPDFHAVEPYTKKELSAVTFPDIIRNYKVMAAENIPENPLKYLYPNIDKDHAFGKYYSRPKEAPEPMELDGPKGTGYIKTELISVSEVHPSRLQTTDNLLPMSPEEFDEVSRIVGSVEFDSMMNTV
Kd [1]: 533 nM
Kd [2]: 73 nM
IC50 [3]: 4300 nM
